Earlier results as cited in paper PMC7545370.

Key:
Ubiquitin (Homo sapiens) = Ubiquitin (Homo sapiens) (UniProt P0CG48)
KAP1 RBCC (Homo sapiens) = KAP1 RBCC (Homo sapiens) (UniProt Q13263)
Sequence of KAP1 RBCC (Homo sapiens) (Q13263 62-379): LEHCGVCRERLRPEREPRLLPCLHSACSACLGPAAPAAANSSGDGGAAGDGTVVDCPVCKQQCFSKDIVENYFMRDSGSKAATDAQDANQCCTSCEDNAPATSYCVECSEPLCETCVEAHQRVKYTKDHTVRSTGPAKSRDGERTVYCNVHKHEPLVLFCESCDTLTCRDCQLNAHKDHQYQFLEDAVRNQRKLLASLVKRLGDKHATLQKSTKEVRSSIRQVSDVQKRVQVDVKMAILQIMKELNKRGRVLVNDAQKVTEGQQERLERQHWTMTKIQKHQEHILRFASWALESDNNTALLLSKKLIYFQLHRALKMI

Sequence of SMARCAD1 CUE1 (Q9H4L7 154-202): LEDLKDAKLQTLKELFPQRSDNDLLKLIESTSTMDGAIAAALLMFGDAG

Kd (Ubiquitin (Homo sapiens)): 952 µM
Kd (KAP1 RBCC (Homo sapiens)): 0.158 µM
Substance: SMARCAD1 CUE1 (from UniProt Q9H4L7)
